± gives the uncertainty stated by the source.
Experiment: self-splicing fitness, log relative to wild type (ln ratio); higher = more splicing; Tetrahymena group I intron in knt gene, E. coli kanamycin selection, DiMSum; sequences stand for … in CUCUCU…GGAGGGAAAAGUUAUCAGGCAUGCACCUGGUAGCUAGUCUUUAAACCAAUAGAUUGCAUCGGUUUAAAAGGCAAGACCGUCAAAUUGCGGGAAAGGGGUCAACAGCCGUUCAGUACCAAGUCUCAGGGGAAACUUUGAGAUGGCCUUGCAAAGGGUAUGGUAAUAAGCUGACGGACAUGGUCCUAACCACGCAGCCAAGUCCUAAGUCAACAGAUCUUCUGUUGAUAUGGAUGCAGUUCACAGACUAAAUGUCGGUCGGGGAAGAUGUAUUCUUCUCAUAAGAUAUAGUCGGACCUCUCCUUAAUGGGAGCUAGCGGAUGAAGUGAUGCAACACUGGAGCCGCUGGGAACUAAUUUGUAUGCGAAAGUAUAUUGAUUAGUUUUGGAGUACUCGUGGUCG
Method in brief: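 The eight P1ex-region nucleotides of an intron in the knt kanamycin-resistance gene on pET-22b(+) were all randomised and the library put into E. coli BL21(DE3). Six replicate transformations were grown overnight at 37°C or 30°C on LB agar with or without 25 μg/mL kanamycin, together with 100 μg/mL carbenicillin, 50 μM IPTG and 0.2% rhamnose. Colonies were pooled and amplicon-sequenced on an Illumina HiSeq 2500. Fitness from DiMSum is the error-weighted combination of wild-type-normalised replicate fold changes, kanamycin over none.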

Sequence	self-splicing fitness (ln) (30 °C)	self-splicing fitness (ln) (37 °C)
CAAAAGCAAUAUUACGGGCC	-3.65 ± 0.27	-2.28 ± 0.28
CAAAAGCAAUAUUACGGGCG	-0.0633 ± 0.084	0.608 ± 0.11
CAAAAGCAAUAUUACGGGGC	-3.66 ± 0.26	-3.02 ± 0.23
CAAAAGCAAUAUUACGGGUU	-3.28 ± 0.14	-2.46 ± 0.16
CAAAAGCAAUAUUACGGUAG	-0.372 ± 0.058	-0.148 ± 0.074
CAAAAGCAAUAUUACGGUGG	-1.13 ± 0.052	-0.335 ± 0.073
CAAAAGCAAUAUUACGUAAG	-0.419 ± 0.047	0.0644 ± 0.059
CAAAAGCAAUAUUACGUCAU	-2.71 ± 0.17	-2.48 ± 0.22
CAAAAGCAAUAUUACGUGAA	-2.73 ± 0.085	-1.63 ± 0.099
CAAAAGCAAUAUUACGUGCU	-4.33 ± 0.2	-2.27 ± 0.15
CAAAAGCAAUAUUACGUGGU	-3.65 ± 0.11	-2.49 ± 0.11
CAAAAGCAAUAUUACGUUAU	-3.96 ± 0.13	-2.5 ± 0.12
CAAAAGCAAUAUUACGUUUA	-2.19 ± 0.13	-1.3 ± 0.13
CAACAGCAAUAUUACGAAAA	-2.73 ± 0.3	-1.38 ± 0.26
CAACAGCAAUAUUACGAACG	0.0149 ± 0.065	0.73 ± 0.084
CAACAGCAAUAUUACGAGAG	-3.41 ± 0.13	-1.91 ± 0.11
CAACAGCAAUAUUACGAGCU	-3.61 ± 0.18	-2.44 ± 0.17
CAACAGCAAUAUUACGCACC	-3.36 ± 0.34	-0.879 ± 0.3
CAACAGCAAUAUUACGCCUG	-1.23 ± 0.088	-0.914 ± 0.11
CAACAGCAAUAUUACGCGAA	-2.16 ± 0.16	-1.61 ± 0.14
CAACAGCAAUAUUACGCGAC	-3.56 ± 0.12	-1.5 ± 0.12
CAACAGCAAUAUUACGCGCA	-0.857 ± 0.085	0.0215 ± 0.087
CAACAGCAAUAUUACGCGCG	-0.385 ± 0.059	-0.492 ± 0.082
CAACAGCAAUAUUACGCGGA	-1.6 ± 0.1	-1.83 ± 0.091
CAACAGCAAUAUUACGCUAA	-2.36 ± 0.098	-2.11 ± 0.12
CAACAGCAAUAUUACGGCAC	-2.31 ± 0.13	-1.61 ± 0.13

Sequence	self-splicing fitness (ln) (30 °C)	self-splicing fitness (ln) (37 °C)
CAACAGCAAUAUUACGGCGC	-1.94 ± 0.076	-1.24 ± 0.096
CAACAGCAAUAUUACGGCGU	-2.15 ± 0.091	-0.0717 ± 0.092
CAACAGCAAUAUUACGGGAG	-1.23 ± 0.051	-1.03 ± 0.063
CAACAGCAAUAUUACGGGCC	-5.11 ± 0.46	-1.48 ± 0.14
CAACAGCAAUAUUACGGGUU	-3.14 ± 0.15	-1.78 ± 0.12
CAACAGCAAUAUUACGGUAC	-4.95 ± 0.28	-3.34 ± 0.22
CAACAGCAAUAUUACGGUUA	-0.258 ± 0.048	0.275 ± 0.056
CAACAGCAAUAUUACGUAGG	-0.482 ± 0.055	0.249 ± 0.069
CAACAGCAAUAUUACGUGCU	-3.48 ± 0.13	-2.27 ± 0.12
CAAGAGCAAUAUUACGACCC	-2.19 ± 0.45	
CAAGAGCAAUAUUACGAGGG	-3.17 ± 0.16	-2.75 ± 0.2
CAAGAGCAAUAUUACGAGUA		-1.56 ± 0.27
CAAGAGCAAUAUUACGAUCC	-2.49 ± 0.42	-2.15 ± 0.5
CAAGAGCAAUAUUACGAUGC	-2.54 ± 0.32	-2.31 ± 0.39
CAAGAGCAAUAUUACGAUUA	-1.92 ± 0.19	-0.907 ± 0.21
CAAGAGCAAUAUUACGCACC	-3.75 ± 0.35	
CAAGAGCAAUAUUACGCAGG	-2.62 ± 0.13	-2 ± 0.17
CAAGAGCAAUAUUACGCAGU	-4 ± 0.46	
CAAGAGCAAUAUUACGCCGA	-2.4 ± 0.23	-1.04 ± 0.32
CAAGAGCAAUAUUACGCUCU	-3.49 ± 0.32	-1.86 ± 0.27
CAAGAGCAAUAUUACGCUGC	-3.4 ± 0.41	-2.01 ± 0.24
CAAGAGCAAUAUUACGGAUG	-2.89 ± 0.1	-2.04 ± 0.12
CAAGAGCAAUAUUACGUCAA	-3.43 ± 0.43	-2.73 ± 0.25
CAAGAGCAAUAUUACGUCGG	-1.4 ± 0.087	-1.37 ± 0.11
CAAGAGCAAUAUUACGUGAG	-1.44 ± 0.087	-0.683 ± 0.11
CAAGAGCAAUAUUACGUGCU	-4.39 ± 0.31	-2.36 ± 0.17

Sequence	self-splicing fitness (ln) (30 °C)	self-splicing fitness (ln) (37 °C)
CAAUAGCAAUAUUACGACAU	-3.694 ± 0.024	-2.38 ± 0.037
CAAUAGCAAUAUUACGAUUA	-1.2 ± 0.12	-0.352 ± 0.11
CAAUAGCAAUAUUACGCCAA	-2.96 ± 0.22	-2.76 ± 0.2
CAAUAGCAAUAUUACGCCUU	-2.1 ± 0.23	-0.997 ± 0.24
CAAUAGCAAUAUUACGCUAC	-3.14 ± 0.22	-2.08 ± 0.26
CAAUAGCAAUAUUACGGCAC	-3.57 ± 0.2	-3.06 ± 0.28
CAAUAGCAAUAUUACGGCAG	-0.535 ± 0.078	0.191 ± 0.11
CAAUAGCAAUAUUACGGCCG	0.102 ± 0.12	0.341 ± 0.16
CAAUAGCAAUAUUACGGCCU	-2.69 ± 0.21	-3.6 ± 0.39
CAAUAGCAAUAUUACGGCGC	-3.81 ± 0.35	-1.37 ± 0.19
CAAUAGCAAUAUUACGGGCC		-1.94 ± 0.29
CAAUAGCAAUAUUACGGGGG	-2.64 ± 0.19	-2.01 ± 0.15
CAAUAGCAAUAUUACGGGGU	-4.27 ± 0.39	-2.48 ± 0.23
CAAUAGCAAUAUUACGGUAU	-3.15 ± 0.15	-2.42 ± 0.21
CAAUAGCAAUAUUACGUACC	-4.73 ± 0.32	-3.09 ± 0.32
CAAUAGCAAUAUUACGUACU	-3.33 ± 0.13	-1.8 ± 0.13
CAAUAGCAAUAUUACGUGCC	-2.98 ± 0.26	-3.02 ± 0.32
CAAUAGCAAUAUUACGUUUC	-4.35 ± 0.2	-3.13 ± 0.19
CACAAGCAAUAUUACGAAGU	-3.68 ± 0.16	-1.43 ± 0.12
CACAAGCAAUAUUACGACUU	-3.49 ± 0.18	-2.47 ± 0.21
CACAAGCAAUAUUACGAGCA	-2.96 ± 0.2	-2.28 ± 0.17
CACAAGCAAUAUUACGAGGU	-3.59 ± 0.17	-2.2 ± 0.18
CACAAGCAAUAUUACGAUAC	-3.58 ± 0.21	-2.5 ± 0.29
CACAAGCAAUAUUACGCGAA	-3.43 ± 0.17	-2.44 ± 0.14
CACAAGCAAUAUUACGCGAG	-1.89 ± 0.092	-0.699 ± 0.091
